± gives the standard deviation of the averaged measurements.
B1: library; a variant is named by its letters at N, in order (parent)
chain: GCUGUCACCGGUGUAUUACCCUAGUGGUCGACCGGUCUGAUGAGUCUNNNNNNAGACGAAACAGC

How the values were obtained:
[1] = variants of: B1; assay: FACS-Seq fitted mean relative fluorescence mCherry/BFP without ligand (log10 relative fluorescence); ligand: hypoxanthine (xanthine aptamer); higher = higher reporter protein expression; conditions: HEK293T, ligand present: no
Outline: (§1)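 To measure fluorescence, a normal distribution was fitted to read counts across sorted bins. The reporter libraries were HEK293T cells transduced by lentivirus with mCherry under ribozyme-switch control and an EF1α-BFP marker, enriched and then kept with or without ligand for 48 h. Sorting used 6 mCherry/BFP bins, and bin genomic DNA was PCR-amplified and sequenced on MiSeq. Fitted means of log10(mCherry/BFP) were scaled to five spiked-in control ribozymes.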

[2] = variants of: B1; assay: normalized RNA/DNA level with ligand (relative to sTRSVctl = 100) (log10 (% of sTRSVctl)); ligand: hypoxanthine (xanthine aptamer); higher = less ribozyme self-cleavage, higher mRNA level; conditions: ligand concentration (+) RNA-Seq: 5 mM, HEK293T, reporter: mCherry (pCS4076), ligand present: yes
Experimental: (§2)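 Hammerhead (sTRSV) ribozyme switch libraries with a ligand aptamer grafted on stem I and a randomized N4-6 loop II, cloned into the 3' UTR of mCherry and transiently transfected into HEK293T cells; RNA-Seq 72 h post transfection with ligand added 1 h before transfection; RNA read count / plasmid DNA read count normalized to the non-cleaving sTRSVctl (x100), log10; sequences with >100 DNA reads. FACS-Seq: lentiviral library sorted into 6 bins after 48 h ligand, log-normal fit mean of mCherry/BFP scaled to controls. Printed sequences are partial switch sequences.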

[3] = variants of: B1; assay: normalized RNA/DNA level without ligand (relative to sTRSVctl = 100) (log10 (% of sTRSVctl)); ligand: hypoxanthine (xanthine aptamer); higher = less ribozyme self-cleavage, higher mRNA level; conditions: HEK293T, reporter: mCherry (pCS4076), ligand present: no
Experimental: as §2

[4] = variants of: B1; assay: FACS-Seq fitted mean relative fluorescence mCherry/BFP with ligand (log10 relative fluorescence); ligand: hypoxanthine (xanthine aptamer); ligand concentration (+) FACS-Seq: 5 mM; higher = higher reporter protein expression; conditions: HEK293T, ligand present: yes
Outline: as §1

| Variant | FACS-Seq fitted mean (log10) [1] | normalized RNA/DNA level with ligand (log10) [2] | normalized RNA/DNA level without ligand (log10) [3] | FACS-Seq fitted mean (log10) [4] |
| --- | --- | --- | --- | --- |
| GAGUCA | 0.644 ± 0.03 | 1.906 ± 0.014 | 1.74 ± 0.056 | 0.707 ± 0.032 |
| UAUGGC | -0.121 ± 0.027 | 1.92 ± 0.012 | 1.82 ± 0.022 | 0.322 ± 0.0061 |
| UAUGGU | 0.514 ± 0.064 | 1.88 ± 0.036 | 1.527 ± 0.004 | 0.643 ± 0.029 |
| UAUGGG | 0.525 ± 0.08 | 1.857 ± 0.0095 | 1.41 ± 0.084 | 0.723 ± 0.072 |
| AAUCUG | 0.297 ± 0.034 | 1.85 ± 0.022 | 1.43 ± 0.1 | 0.656 ± 0.024 |
| AAUCUA | 0.651 ± 0.051 | 1.922 ± 0.014 | 1.8 ± 0.059 | 0.6869 ± 0.0045 |
| GAUCCG | 0.0801 ± 0.012 | 1.94 ± 0.048 | 1.77 ± 0.051 | 0.31 ± 0.0077 |
| AAUCAC | -0.698 ± 0.014 | 1.95 ± 0.04 | 1.849 ± 0.0051 | -0.545 ± 0.04 |
| AAUCAU | 0.507 ± 0.019 | 1.9 ± 0.027 | 1.8365 ± 0.00062 | 0.523 ± 0.057 |
| CAUGAA | 0.0197 ± 0.067 | 1.87 ± 0.026 | 1.68 ± 0.022 | 0.341 ± 0.056 |
| CAUGAC | -0.299 ± 0.099 | 1.937 ± 0.006 | 1.793 ± 0.017 | 0.254 ± 0.046 |
| CAUGAU | 0.296 ± 0.088 | 1.905 ± 0.0035 | 1.73 ± 0.032 | 0.333 ± 0.077 |
| CAUGAG | -0.0522 ± 0.019 | 1.924 ± 0.011 | 1.562 ± 0.0089 | 0.35 ± 0.039 |
| GAUAGA | 0.3713 ± 0.0031 | 1.89 ± 0.052 | 1.592 ± 0.01 | 0.547 ± 0.025 |
| GAUAGG | -0.0874 ± 0.036 | 1.737 ± 0.017 | 1.27 ± 0.04 | 0.506 ± 0.068 |
| GAUCAC | 0.374 ± 0.035 | 1.99 ± 0.068 | 1.87 ± 0.025 | 0.417 ± 0.071 |
| GAUCAU | 0.447 ± 0.026 | 1.91 ± 0.033 | 1.919 ± 0.018 | 0.521 ± 0.023 |
| GAUCAA | 0.497 ± 0.07 | 1.9 ± 0.03 | 1.833 ± 0.0048 | 0.708 ± 0.034 |

| Variant | FACS-Seq fitted mean (log10) [1] | normalized RNA/DNA level with ligand (log10) [2] | normalized RNA/DNA level without ligand (log10) [3] | FACS-Seq fitted mean (log10) [4] |
| --- | --- | --- | --- | --- |
| GAUAAU | -0.0227 ± 0.0069 | 1.909 ± 0.0021 | 1.78 ± 0.026 | 0.133 ± 0.006 |
| GAUAAG | -0.0234 ± 0.075 | 1.81 ± 0.027 | 1.36 ± 0.025 | 0.43 ± 0.02 |
| GAUAAA | 0.6 ± 0.041 | 1.919 ± 0.009 | 1.764 ± 0.0024 | 0.621 ± 0.12 |
| UAUAUA | 0.814 ± 0.011 | 1.95 ± 0.04 | 1.836 ± 0.018 | 0.838 ± 0.068 |
| UAUAUG | 0.385 ± 0.02 | 1.88 ± 0.049 | 1.723 ± 0.013 | 0.531 ± 0.025 |
| CAGUGU | 0.44 ± 0.086 | 1.924 ± 0.002 | 1.87 ± 0.016 | 0.795 ± 0.017 |
| CAGUGG | 0.315 ± 0.042 | 1.9 ± 0.024 | 1.32 ± 0.043 | 0.629 ± 0.11 |
| CAGUGA | 0.406 ± 0.012 | 1.89 ± 0.076 | 1.71 ± 0.057 | 0.487 ± 0.032 |
| GAUUGG | -0.303 ± 0.024 | 1.794 ± 0.017 | 1.29 ± 0.047 | 0.393 ± 0.017 |
| GAUUGC | 0.4839 ± 0.0013 | 1.87 ± 0.054 | 1.65 ± 0.043 | 0.553 ± 0.01 |
| GAUUGU | 0.452 ± 0.076 | 1.944 ± 0.01 | 1.77 ± 0.042 | 0.601 ± 0.054 |
| GAUUGA | 0.348 ± 0.023 | 1.92 ± 0.022 | 1.61 ± 0.05 | 0.455 ± 0.063 |
| AAUAGC | 0.38 ± 0.038 | 1.924 ± 0.0031 | 1.734 ± 0.0066 | 0.681 ± 0.17 |
| AAUAGA | 0.386 ± 0.012 | 1.89 ± 0.027 | 1.63 ± 0.052 | 0.44 ± 0.055 |
| AAUAGU | 0.36 ± 0.029 | 1.87 ± 0.027 | 1.61 ± 0.016 | 0.505 ± 0.041 |
| AAUAGG | 0.109 ± 0.012 | 1.75 ± 0.046 | 1.28 ± 0.1 | 0.509 ± 0.025 |
| UAUUGG | 0.528 ± 0.017 | 1.87 ± 0.031 | 1.431 ± 0.011 | 0.745 ± 0.06 |
| UAUUGU | 0.106 ± 0.0092 | 1.92 ± 0.044 | 1.7 ± 0.026 | 0.411 ± 0.049 |

— the supplement of paper PMC6757056
